Experimental data as given in publication PMC3465527.

Legend:
Mss116p D2 (with CTE) = target: T1, Mss116p D2 (with CTE) (Saccharomyces cerevisiae? (paper: yeast), UniProt P15424 342-597); assay: X-ray crystallography
T1 sequence: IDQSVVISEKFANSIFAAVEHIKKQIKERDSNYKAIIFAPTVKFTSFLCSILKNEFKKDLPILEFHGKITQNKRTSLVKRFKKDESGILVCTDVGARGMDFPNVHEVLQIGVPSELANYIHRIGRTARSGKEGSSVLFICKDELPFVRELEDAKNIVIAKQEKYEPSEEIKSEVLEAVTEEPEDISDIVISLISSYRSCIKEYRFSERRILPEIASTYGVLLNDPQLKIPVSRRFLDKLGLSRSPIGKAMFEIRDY

Mss116p MBP-D1 = target: T2, Mss116p MBP-D1 (Saccharomyces cerevisiae? (paper: yeast), UniProt P15424 88-330); assay: EMSA
T2 sequence: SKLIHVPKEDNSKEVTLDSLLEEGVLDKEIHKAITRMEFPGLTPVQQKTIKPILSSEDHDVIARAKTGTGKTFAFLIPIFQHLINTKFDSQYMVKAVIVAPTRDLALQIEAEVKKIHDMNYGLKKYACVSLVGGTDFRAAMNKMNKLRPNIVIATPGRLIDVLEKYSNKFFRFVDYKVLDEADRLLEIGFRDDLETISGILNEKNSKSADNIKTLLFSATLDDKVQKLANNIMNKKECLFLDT

Binder | binding result (Mss116p D2 (with CTE)) | binding result (Mss116p MBP-D1)
chimeric RNA-DNA duplex 14-bp (mixed, each strand rGrGrGrCrGrGrGdCdCdCdGdCdCdC: nt 1-7 RNA, nt 8-14 DNA) ? 1: GGGCGGGCCCGCCC ? 2: GGGCGGGCCCGCCC | binds | –
FAM-dsRNA 14-bp (dsRNA) RNA 1: GGGCGGGCCCGCCC RNA 2: GGGCGGGCCCGCCC | – | no binding
